Laboratory results reported in patent publication US7943731 (MIT, dated 2011).

Target: the molecule itself
Assay: sedimentation equilibrium, self-association in solution without DNA
Method: Sedimentation Equilibrium. Peptide samples at three concentrations, ranging from ≈10 µM to ≈100 µM, were centrifuged to equilibrium in a Beckman Optima XL-A at 20,000 and 30,000 rpm at 4° C. in a buffer containing 15 mM Tris, pH 7.8, 150 mM KCl, 5 mM MgCl_2, 20 µM ZnSO_4, and 0.2 mM DTT. Solvent density and partial specific volumes of peptides were calculate at described (13). The sedimentation data were analyzed by methods described in refs. 14 and 15, using the program NONLIN (16).

B1: Zif12 peptide (amino acids 2-59 of Zif268, Gly-Ser dipeptide at the N terminus) (other)
chain: not shown
notes: range 2-59; No N-terminal peptide extension; also called isolated Zif12 domain; Zif1-Zif2 construct
binding result: no binding (tested: ≈100 µM)
